Data as given in article PMC12400196, “Triosephosphate isomerase from Fasciola hepatica: high-resolution crystal structure as a drug target” (Acta Crystallographica Section F: Structural Biology …, 2025).

Target: the molecule itself
Test: SEC; HiLoad 16/600 Superdex 200 pg, 25 mM Tris, 300 mM NaCl pH 7.0, 277 K; preparative step after IMAC

B1: Triosephosphate isomerase from Fasciola hepatica (enzyme)
chain: MASNRKFFVGGNWKMNGSKESNQKLLKTLSDAKPDANTEILVAVPFVYLKDVREHLDKRFHVAAQNCYKVASGAFTGEISPAMIRDCGCEWVILGHSERRHIFGESDELIGEKVNHALTCGLKVVPCIGEKLDEREAGKTEQVCFRQLDAIKKGIPKAEDWSRVVIAYEPVWAIGTGKTASPEQAQEVHHAVRQWLEKNVSQAVASSLRITYGGSVTAANCKELAKKPDVDGFLVGGASLKPEFVDICNANRG
notes: triosephosphate isomerase (EC 5.3.1.1), Fasciola hepatica; gene in plasmid pET-46 Ek/LIC; The plasmid was provided by D. Timson (construct of Zinsser et al., 2013); also called FhTPI; F. hepatica TPI; source: E. coli Rosetta (DE3), purified (IMAC, SEC)
stoichiometry N: 2
